From article PMC9482650, “Quantitative fragmentomics allow affinity mapping of interactomes” (Nature Communications, 2022)

Tests used:
Test in all cases: holdup assay
Parameters in all cases: key: below the threshold = too weak to quantify, mostly under pKd 3.1 to 4
[1] = target: T1, APBA2_2, Q99767
T1 sequence (Q99767 654-744, limits assumed, looked up): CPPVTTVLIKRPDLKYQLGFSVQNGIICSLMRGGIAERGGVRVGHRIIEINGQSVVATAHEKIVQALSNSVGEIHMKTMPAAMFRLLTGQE

[2] = target: DLG1_2, Q12959
[3] = target: DLG2_2, Q15700
[4] = target: DLG2_3, Q15700
[5] = target: T2, DLG3_2, Q92796
T2 sequence (Q92796 221-321, limits assumed, looked up): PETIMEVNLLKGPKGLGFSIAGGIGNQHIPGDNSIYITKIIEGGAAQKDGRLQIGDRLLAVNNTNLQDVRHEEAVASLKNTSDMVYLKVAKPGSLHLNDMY

[6] = target: FRMPD2_2, Q68DX3
[7] = target: GIPC2, Q8TF65
[8] = target: T3, GRIP1_3, Q9Y3R0
T3 sequence (Q9Y3R0 247-346, limits assumed, looked up): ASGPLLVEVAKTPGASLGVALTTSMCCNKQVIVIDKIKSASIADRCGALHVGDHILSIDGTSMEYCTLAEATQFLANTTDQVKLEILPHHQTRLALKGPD

[9] = target: GRIP2_5, Q9C0E4
[10] = target: GRIP2_7, Q9C0E4
[11] = target: Inadl_8, Q8NI35
[12] = target: T4, LIN7C, Q9NUP9
T4 sequence (Q9NUP9 88-185, limits assumed, looked up): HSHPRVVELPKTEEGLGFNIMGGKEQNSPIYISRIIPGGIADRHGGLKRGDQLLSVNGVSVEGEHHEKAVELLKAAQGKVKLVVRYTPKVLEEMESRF

[13] = target: LNX1_2, Q8TBB1
[14] = target: T5, MPDZ_5, O75970
T5 sequence (O75970 695-796, limits assumed, looked up): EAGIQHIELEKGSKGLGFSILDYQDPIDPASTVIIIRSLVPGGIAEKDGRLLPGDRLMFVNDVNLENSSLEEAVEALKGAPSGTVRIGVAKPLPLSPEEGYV

[15] = target: T6, MPP6, Q9NZW5
T6 sequence (Q9NZW5 125-219, limits assumed, looked up): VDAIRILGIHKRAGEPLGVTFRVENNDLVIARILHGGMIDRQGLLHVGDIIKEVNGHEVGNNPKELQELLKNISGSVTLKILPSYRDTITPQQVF

[16] = target: T7, NHERF3_1, Q5T2W1
T7 sequence (Q5T2W1 4-100, limits assumed, looked up): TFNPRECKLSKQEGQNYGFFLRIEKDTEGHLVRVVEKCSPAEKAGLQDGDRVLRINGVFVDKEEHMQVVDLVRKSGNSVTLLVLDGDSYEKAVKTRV

[17] = target: T8, NHERF3_4, Q5T2W1
T8 sequence (Q5T2W1 373-468, limits assumed, looked up): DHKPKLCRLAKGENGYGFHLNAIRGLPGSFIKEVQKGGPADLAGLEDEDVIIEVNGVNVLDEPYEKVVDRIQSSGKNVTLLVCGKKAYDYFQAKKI

[18] = target: PARD3_3, Q8TEW0
[19] = target: T9, PDZD7_3, Q9H5P4
T9 sequence (Q9H5P4 857-944, limits assumed, looked up): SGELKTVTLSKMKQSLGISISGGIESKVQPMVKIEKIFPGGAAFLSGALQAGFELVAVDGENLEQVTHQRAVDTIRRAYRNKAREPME

[20] = target: SCRIB_2, Q14160
[21] = target: T10, SNTA1, Q13424
T10 sequence (Q13424 82-180, limits assumed, looked up): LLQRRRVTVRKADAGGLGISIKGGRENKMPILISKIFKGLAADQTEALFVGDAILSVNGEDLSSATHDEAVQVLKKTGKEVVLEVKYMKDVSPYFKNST

[22] = target: T11, SNTB1, Q13884
T11 sequence (Q13884 107-205, limits assumed, looked up): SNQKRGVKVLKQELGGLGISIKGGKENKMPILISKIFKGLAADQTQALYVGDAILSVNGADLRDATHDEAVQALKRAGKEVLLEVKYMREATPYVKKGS

[23] = target: T12, SNTG1, Q9NSN8
T12 sequence (Q9NSN8 52-150, limits assumed, looked up): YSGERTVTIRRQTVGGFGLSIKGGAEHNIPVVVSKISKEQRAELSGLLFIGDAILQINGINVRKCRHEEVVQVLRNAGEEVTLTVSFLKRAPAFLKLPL

[24] = target: TJP1_2, Q07157
[25] = target: T13, TX1BP3, O14907
T13 sequence (O14907 10-122, limits assumed, looked up): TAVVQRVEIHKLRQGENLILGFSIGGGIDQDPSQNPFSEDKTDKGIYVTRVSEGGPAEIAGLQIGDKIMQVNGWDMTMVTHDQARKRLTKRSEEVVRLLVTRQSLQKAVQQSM

[26] = plain residues with an end cap or a label only (N-terminal biotin on a linker: ado-ado)
[27] = plain residues with an end cap or a label only (N-terminal biotin on a linker: ahx)
[28] = plain residues with an end cap or a label only (N-terminal biotin on a linker: ttds)

TJP1_2, Q07157, sequence (Q07157 181-274): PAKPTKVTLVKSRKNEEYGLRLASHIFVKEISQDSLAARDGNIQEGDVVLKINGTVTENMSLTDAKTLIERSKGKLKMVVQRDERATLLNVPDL
DLG1_2, Q12959, sequence (Q12959 314-412): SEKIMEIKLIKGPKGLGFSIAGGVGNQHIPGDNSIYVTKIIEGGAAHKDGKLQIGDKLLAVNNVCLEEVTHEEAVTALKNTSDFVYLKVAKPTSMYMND
GRIP2_7, Q9C0E4, sequence (Q9C0E4 934-1023): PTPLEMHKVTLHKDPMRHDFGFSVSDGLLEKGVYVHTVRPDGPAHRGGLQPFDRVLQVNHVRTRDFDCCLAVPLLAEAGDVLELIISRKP
SCRIB_2, Q14160, sequence (Q14160 857-960): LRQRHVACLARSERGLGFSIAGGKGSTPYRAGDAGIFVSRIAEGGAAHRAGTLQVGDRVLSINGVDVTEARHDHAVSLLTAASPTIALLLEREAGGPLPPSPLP
GRIP2_5, Q9C0E4, sequence (Q9C0E4 544-642): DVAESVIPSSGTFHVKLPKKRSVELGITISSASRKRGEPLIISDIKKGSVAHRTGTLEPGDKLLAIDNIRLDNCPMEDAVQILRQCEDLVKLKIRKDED
GIPC2, Q8TF65, sequence (Q8TF65 112-203): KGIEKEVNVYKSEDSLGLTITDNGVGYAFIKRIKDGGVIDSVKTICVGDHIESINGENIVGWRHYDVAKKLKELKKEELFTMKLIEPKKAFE
FRMPD2_2, Q68DX3, sequence (Q68DX3 944-1038): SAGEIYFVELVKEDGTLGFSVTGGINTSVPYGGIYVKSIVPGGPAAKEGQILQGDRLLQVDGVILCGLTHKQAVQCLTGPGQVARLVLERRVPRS
PARD3_3, Q8TEW0, sequence (Q8TEW0 582-685): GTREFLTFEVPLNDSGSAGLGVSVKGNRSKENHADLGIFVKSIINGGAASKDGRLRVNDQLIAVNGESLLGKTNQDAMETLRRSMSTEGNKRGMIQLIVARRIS
Inadl_8, Q8NI35, sequence (Q8NI35 1425-1530): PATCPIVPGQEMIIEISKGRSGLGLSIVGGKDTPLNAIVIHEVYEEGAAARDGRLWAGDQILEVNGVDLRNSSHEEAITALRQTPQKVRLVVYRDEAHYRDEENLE
LNX1_2, Q8TBB1, sequence (Q8TBB1 371-470): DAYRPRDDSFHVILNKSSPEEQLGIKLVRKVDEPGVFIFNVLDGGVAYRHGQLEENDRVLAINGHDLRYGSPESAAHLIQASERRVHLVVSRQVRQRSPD

## EKPIDSETKM [SLC1A3, P43003]
[1]; [26]
  pKd: below the threshold
[2]; [26]
  pKd: below the threshold
[3]; [26]
  pKd: below the threshold
[4]; [26]
  pKd: below the threshold
[5]; [26]
  pKd: below the threshold
[6]; [26]
  pKd: below the threshold
[7]; [26]
  pKd: below the threshold
[8]; [26]
  pKd: below the threshold
[9]; [26]
  pKd: below the threshold
[10]; [26]
  pKd: below the threshold
[11]; [26]
  pKd: below the threshold
[12]; [26]
  pKd: below the threshold
[13]; [26]
  pKd: below the threshold
[14]; [26]
  pKd: below the threshold
[15]; [26]
  pKd: below the threshold
[16]; [26]
  pKd: 5.23
[17]; [26]
  pKd: below the threshold
[18]; [26]
  pKd: below the threshold
[19]; [26]
  pKd: below the threshold
[20]; [26]
  pKd: below the threshold
[21]; [26]
  pKd: below the threshold
[22]; [26]
  pKd: below the threshold
[23]; [26]
  pKd: below the threshold
[24]; [26]
  pKd: below the threshold
[25]; [26]
  pKd: below the threshold

## VNENQKEYFF [CNTNAP4, Q9C0A0]
[1]; [27]
  pKd: below the threshold
[2]; [27]
  pKd: below the threshold
[3]; [27]
  pKd: below the threshold
[4]; [27]
  pKd: below the threshold
[5]; [27]
  pKd: below the threshold
[6]; [27]
  pKd: below the threshold
[7]; [27]
  pKd: below the threshold
[8]; [27]
  pKd: below the threshold
[9]; [27]
  pKd: below the threshold
[10]; [27]
  pKd: 5.77
[11]; [27]
  pKd: below the threshold
[12]; [27]
  pKd: below the threshold
[13]; [27]
  pKd: below the threshold
[14]; [27]
  pKd: 4.22
[15]; [27]
  pKd: below the threshold
[16]; [27]
  pKd: 4.91
[17]; [27]
  pKd: below the threshold
[18]; [27]
  pKd: 5.32
[19]; [27]
  pKd: below the threshold
[20]; [27]
  pKd: below the threshold
[21]; [27]
  pKd: below the threshold
[22]; [27]
  pKd: below the threshold
[23]; [27]
  pKd: below the threshold
[24]; [27]
  pKd: below the threshold
[25]; [27]
  pKd: below the threshold

## PSRDRKETSI [RALBP1, Q15311]
[1]; [28]
  pKd: below the threshold
[2]; [28]
  pKd: 4.7
[3]; [28]
  pKd: 4.29
[4]; [28]
  pKd: 4.64
[5]; [28]
  pKd: 4.35
[6]; [28]
  pKd: 3.31
[7]; [28]
  pKd: 3.58
[8]; [28]
  pKd: below the threshold
[9]; [28]
  pKd: below the threshold
[10]; [28]
  pKd: below the threshold
[11]; [28]
  pKd: below the threshold
[12]; [28]
  pKd: 3.9
[13]; [28]
  pKd: below the threshold
[14]; [28]
  pKd: below the threshold
[15]; [28]
  pKd: below the threshold
[16]; [28]
  pKd: 3.68
[17]; [28]
  pKd: below the threshold
[18]; [28]
  pKd: below the threshold
[19]; [28]
  pKd: 4.89
[20]; [28]
  pKd: 3.75
[21]; [28]
  pKd: 4.06
[22]; [28]
  pKd: 3.97
[23]; [28]
  pKd: 3.76
[24]; [28]
  pKd: below the threshold
[25]; [28]
  pKd: 4.23

## SQDPKKPSRV [CBY2, Q8NA61]
[1]; [26]
  pKd: below the threshold
[2]; [26]
  pKd: below the threshold
[3]; [26]
  pKd: below the threshold
[4]; [26]
  pKd: below the threshold
[5]; [26]
  pKd: below the threshold
[6]; [26]
  pKd: below the threshold
[7]; [26]
  pKd: below the threshold
[8]; [26]
  pKd: below the threshold
[9]; [26]
  pKd: below the threshold
[10]; [26]
  pKd: below the threshold
[11]; [26]
  pKd: 4.43
[12]; [26]
  pKd: below the threshold
[13]; [26]
  pKd: below the threshold
[14]; [26]
  pKd: below the threshold
[15]; [26]
  pKd: 3.89
[16]; [26]
  pKd: below the threshold
[17]; [26]
  pKd: below the threshold
[18]; [26]
  pKd: below the threshold
[19]; [26]
  pKd: below the threshold
[20]; [26]
  pKd: below the threshold
[21]; [26]
  pKd: 3.48
[22]; [26]
  pKd: below the threshold
[23]; [26]
  pKd: below the threshold
[24]; [26]
  pKd: below the threshold
[25]; [26]
  pKd: below the threshold

## HSATSVHTSV [MTMR1, Q13613]
[1]; [27]
  pKd: below the threshold
[2]; [27]
  pKd: 4.9
[3]; [27]
  pKd: 3.88
[4]; [27]
  pKd: 4.44
[5]; [27]
  pKd: 4.72
[6]; [27]
  pKd: below the threshold
[7]; [27]
  pKd: below the threshold
[8]; [27]
  pKd: below the threshold
[9]; [27]
  pKd: below the threshold
[10]; [27]
  pKd: below the threshold
[11]; [27]
  pKd: 3.88
[12]; [27]
  pKd: below the threshold
[13]; [27]
  pKd: below the threshold
[14]; [27]
  pKd: below the threshold
[15]; [27]
  pKd: below the threshold
[16]; [27]
  pKd: below the threshold
[17]; [27]
  pKd: below the threshold
[18]; [27]
  pKd: 3.73
[19]; [27]
  pKd: 3.87
[20]; [27]
  pKd: 3.95
[21]; [27]
  pKd: 3.65
[22]; [27]
  pKd: 3.78
[23]; [27]
  pKd: below the threshold
[24]; [27]
  pKd: below the threshold
[25]; [27]
  pKd: 3.8
